PMC3141245

Tests used:
JBP1 D525A = JBP1 D525A (UniProt Q9U6M1 1-827, D525A); assay: fluorescence anisotropy
DB-JBP1 D536A = DB-JBP1 D536A (Leishmania tarentolae, UniProt Q9U6M1 382-561, D536A); assay: SPR
DB-JBP1 D525A = DB-JBP1 D525A (Leishmania tarentolae, UniProt Q9U6M1 382-561, D525A); assay: SPR
DB-JBP1 K436A = DB-JBP1 K436A (Leishmania tarentolae, UniProt Q9U6M1 382-561, K436A); assay: fluorescence anisotropy
DB-JBP1 K535A = DB-JBP1 K535A (Leishmania tarentolae, UniProt Q9U6M1 382-561, K535A); assay: fluorescence anisotropy

B1: VSG T-DNA 14-mer (dsDNA)
DNA 1: GGCAGCTGCAACAA
DNA 2: TTGTTGCAGCTGCC
JBP1 D525A
  Kd: 11.7 µM

B2: VSG J-DNA 14-mer, biotin (dsDNA)
DNA 1: GGCAGCTGCAACAA
DNA 2: TTGTTGCAGCTGCC
modifications: base J replaces T7 of strand 1
DB-JBP1 D536A
  binding result: binds
DB-JBP1 D525A
  binding result: no binding

B3: VSG J-DNA 14-mer (dsDNA)
DNA 1: GGCAGCTGCAACAA
DNA 2: TTGTTGCAGCTGCC
modifications: base J (beta-D-glucosyl-hydroxymethyluracil) replaces T7 of strand 1
DB-JBP1 K436A
  binding result: binds
DB-JBP1 K535A
  binding result: binds
